From US20100120675A1 (CONSEJO SUPERIOR DE INVESTIGACIONES CIENTIFICAS, published 2010)

B1: protein p56FLAG (other)
chain: MVQNDFVDSYDVTMLLQDDDGKQYYEYHKGLSLSDFEVLYGNTADEIIKLRLDKVLDYKDDDDK
notes: Produced constitutively in B. subtilis 110NA[pPR53.p56FLAG]; Captured from the cell lysate on an anti-FLAG M2 column
B2: protein p56 of the phi29 (φ29) bacteriophage (other)
chain: MVQNDFVDSYDVTMLLQDDDGKQYYEYHKGLSLSDFEVLYGNTADEIIKLRLDKVL
notes: Untagged, purified as in section 1.4; also called protein of the invention

Columns and labels:
[1] = biological target: T1, UDG enzyme of B. subtilis (Bacillus subtilis, UniProt P39615 1-225); assay: affinity chromatography of B. subtilis 110NA[pPR53.p56FLAG] lysate on anti-FLAG M2 column, elution with FLAG peptide, SDS gel, peptide mass fingerprinting
T1 construct: Endogenous enzyme of the B. subtilis 110NA extract, identified by peptide mass fingerprinting (MASCOT); also called UDG of B. subtilis; protein D
T1 sequence: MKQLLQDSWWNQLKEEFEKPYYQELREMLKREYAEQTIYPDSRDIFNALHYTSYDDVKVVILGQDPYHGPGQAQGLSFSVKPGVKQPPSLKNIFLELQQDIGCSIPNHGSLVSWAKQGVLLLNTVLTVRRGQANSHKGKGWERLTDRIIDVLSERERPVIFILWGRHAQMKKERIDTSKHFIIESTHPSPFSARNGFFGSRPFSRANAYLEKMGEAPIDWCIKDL
Procedure: In order to analyse whether the UDG enzyme is a cellular target of protein p56, affinity chromatography assays were performed. […] The culture was concentrated 10-fold in TBS buffer (50 mM Tris-HCl, pH 7.5, 150 mM NaCl) and was lysed using the French press (20,000 psi). The lysate was centrifuged at 7,000 rpm and 4° C. in the Sorvall-SS.34 rotor for 10 minutes. The supernatant was loaded in an anti-FLAG M2 column (Sigma). The proteins bound to the column were eluted with the TBS buffer containing the FLAG peptide (500 μg/ml) (Sigma). […] The gel was stained with SyproRuby (Molecular Probes). As a negative control, an extract from the 110NA[pPR53] strain was used.

UDG enzyme of E. coli = biological target: T2, UDG enzyme of E. coli (E. coli, UniProt P12295 2-229); assay: native polyacrylamide gel (16%) of p56 (2 µg) incubated with E. coli UDG (0.2 µg); Western blot and peptide mass fingerprinting of the band
T2 construct: Commercial enzyme; also called UDG of E. coli (New England Biolabs)
T2 sequence: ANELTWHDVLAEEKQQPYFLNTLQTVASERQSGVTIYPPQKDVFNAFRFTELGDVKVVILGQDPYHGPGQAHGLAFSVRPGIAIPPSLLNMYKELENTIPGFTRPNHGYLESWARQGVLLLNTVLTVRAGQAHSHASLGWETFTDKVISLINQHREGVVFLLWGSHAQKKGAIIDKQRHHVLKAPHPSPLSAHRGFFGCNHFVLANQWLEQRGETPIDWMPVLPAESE

| Binder | binding result [1] | binding result (UDG enzyme of E. coli) |
| --- | --- | --- |
| B1 | binds |  |
| B2 |  | binds |
